Tests used:
[1] = SAXS and structural model of calcium phosphate nanoclusters; assay type: physicochemical; conditions: from modelling of the structure
Method: For the OPN 1-149 nanocluster, a description of the peptide segment distribution around the core was considered which is more explicit than that provided by the core-shell model. The simplest block copolymer micelle model has been used in which a corona is formed by Gaussian chains attached by one end to a uniform spherical core. The nanoclusters were prepared either on the SAXS station and measured immediately or were prepared 2 days previously to allow the system to come to equilibrium. The sample was then stored at room temperature and remeasured 5 months later during a later allocation of beamtime. […] The intensity averaged diffusion coefficient, D, was determined with a Malvern Zetasizer Nano instrument.
The results of the SAXS measurements on nanocluster sub-samples measured as a function of time after the addition of the urease are summarised in FIGS. 6a and 6b. […] According to the calculated degree of reaction of the phosphate centres and to the analysis of the correlation function given by the dynamic light scattering studies, the equilibrium state has a significant excess of free peptide, the scattering from which, although negligible at low q, has to be taken account of in modelling the SAXS at higher q. […]

[2] = Stability and reconstitution of nanocluster solutions (urea/urease method); assay type: physicochemical; conditions: in the original volume of water; clear solution, nanocluster size unchanged
Method: Nanoclusters were prepared by the urea/urease method, as discussed above and as known in the art (Holt, C., Wahlgren, N. M. & Drakenberg, T. (1996). Ability of a beta-casein phosphopeptide to modulate the precipitation of calcium phosphate by forming amorphous dicalcium phosphate nanoclusters. Biochemical Journal 314, 1035-1039) but wherein the phosphopeptide was provided by either the OPNmix, discussed above, or fractions from the gel filtration separation. Typically, an OPNmix sample (25 mg) was dissolved in 1 ml of water and dialysed overnight against 500 ml of 1 mM EDTA followed by exhaustive dialysis against deionised water to remove Ca ions. The Ca-free peptides were recovered by freeze drying.
An initial under-saturated solution of salts at pH 5 with the composition 22 mM Ca(NO3)2, 20 mM KH2PO4, 36 mM KNO3 and 1.5 mM NaN3 (Mg-free Buffer A) was used to dissolve the peptide. Sufficient urea (0-30 mM) was added from a stock solution of 200 mM to give the desired final pH after hydrolysis with 2 units of urease from Canavalia ensiformis (Calbiochem product no. 666133). These conditions allowed the pH to rise to within 0.004 units of the target value within a few minutes. […]

For “OPN 1-149: N-terminal osteopontin phosphopeptide fragment from bovine milk, probably formed by plasmin; gel filtration fraction F3a”, the “number of peptide chains on a nanocluster” value [1] was “about 2618” and the “dissolution of freeze-dried nanocluster powder” value [2] was “dissolve virtually instantly”.

From US20110117206A1, “PHOSPHOPEPTIDES AND USE OF THE SAME” (PLANT BIOSCIENCE LIMITED, priority 2008, published 2011)
